Laboratory results as given in PMC8096230.

B1: GRE2 mut (dsDNA)
DNA 1: AGGCTGGGTATACAGAATGCCCTGCC
DNA 2: GGCAGGGCACTCTGTGTACCCAGCCT
B2: GRE1 mut (dsDNA)
DNA 1: TGAGTCAGGATTGAGTATTCTCACGG
DNA 2: CCGTGAGAACACTCAGTCCTGACTCA
B3: NSP (non-specific probe) (dsDNA)
DNA 1: TGGGCTGAGGCTGGGTGTGGCCCGAC
DNA 2: GTCGGGCCACACCCAGCCTCAGCCCA
B4: GRE (Gilz) / GREgilz (dsDNA)
DNA 1: TGAGTCAGAACATTGGGTTCCCACGG
DNA 2: CCGTGGGAACCCAATGTTCTGACTCA
B5: GRE2 (Eif4ebp2 GBSe2) (dsDNA)
DNA 1: AGGCTGGGTACACAGAGTGCCCTGCC
DNA 2: GGCAGGGCACTCTGTGTACCCAGCCT
B6: GRE1 (Eif4ebp2 GBSe1) (dsDNA)
DNA 1: TGAGTCAGGACTGAGTGTTCTCACGG
DNA 2: CCGTGAGAACACTCAGTCCTGACTCA

What follows are binders tested against T1, GR DBD (human, UniProt P04150 412-506) (assay: EMSA).
T1 sequence (P04150 412-506): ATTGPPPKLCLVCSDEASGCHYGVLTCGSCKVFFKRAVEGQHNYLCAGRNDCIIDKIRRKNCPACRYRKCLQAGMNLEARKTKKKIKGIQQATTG

Binder | binding result
B1 | no binding
B2 | no binding
B3 | no binding

These binders were tested against T1, GR DBD (assay: MST).

Binder | Kd [nM]
B4 | 154
B5 | 204
B6 | 195
